From patent publication US20240301071A1 (Alector, published 2024)
Substitutions are numbered along the chain they refer to.

B1: 3F9-22-huIgG1 PS (antibody)
heavy: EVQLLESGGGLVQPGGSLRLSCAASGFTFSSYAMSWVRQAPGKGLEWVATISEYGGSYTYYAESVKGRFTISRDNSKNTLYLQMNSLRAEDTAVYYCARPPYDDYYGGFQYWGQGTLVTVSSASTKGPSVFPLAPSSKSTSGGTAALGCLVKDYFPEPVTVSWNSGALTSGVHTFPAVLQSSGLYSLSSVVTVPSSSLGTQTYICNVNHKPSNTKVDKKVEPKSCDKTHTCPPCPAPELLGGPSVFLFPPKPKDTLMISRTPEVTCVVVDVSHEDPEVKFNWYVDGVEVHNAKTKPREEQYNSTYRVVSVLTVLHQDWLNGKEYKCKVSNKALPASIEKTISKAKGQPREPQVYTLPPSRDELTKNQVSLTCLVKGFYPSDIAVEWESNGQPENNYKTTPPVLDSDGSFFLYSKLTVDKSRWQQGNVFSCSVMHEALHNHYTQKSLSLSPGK
light: DIQLTQSPSSLSASVGDRVTITCRASKSVSSGGYSYMHWYQQKPGKAPKLLIYLASNLESGVPSRFSGSGSGTDFTLTISSVQPEDFATYYCQHNRELPVTFGQGTKLEIKRTVAAPSVFIFPPSDEQLKSGTASVVCLLNNFYPREAKVQWKVDNALQSGNSQESVTEQDSKDSTYSLSSTLTLSKADYEKHKVYACEVTHQGLSSPVTKSFNRGEC
B2: 3F9-1 (antibody, human IgG1, V domains shown)
VH: EVQLLESGGGLVQPGGSLRLSCAASGFTFSSYAMSWVRQAPGKGLEWVATISEYGGSYTYYAESVKGRFTISRDNSKNTLYLQMNSLRAEDTAVYYCARPPYDDYYGGFAYWGQGTLVTVSS
VL: DIQLTQSPSSLSASVGDRVTITCRASKSVSSGGYSYMHWYQQKPGKAPKLLIYLASNLESGVPSRFSGSGSGTDFTLTISSVQPEDFATYYCQHNRELPSTFGQGTKLEIK
notes: also called mAb 3F9-1
B3: 3F9-25 (antibody, human IgG1, V domains shown)
VH: B2 VH with A110Q
VL: B2 VL with S100W
notes: also called mAb 3F9-25
B4: 3F9-3 (antibody, human IgG1, V domains shown)
VH: B2 VH
VL: B2 VL with S100I
notes: also called mAb 3F9-3
B5: 3F9-4 (antibody, human IgG1, V domains shown)
VH: B2 VH
VL: B2 VL with S100P
notes: also called mAb 3F9-4
B6: 3F9-15 (antibody, human IgG1, V domains shown)
VH: B2 VH with A110R
VL: B2 VL with S100A
notes: also called mAb 3F9-15
B7: 3F9-24 (antibody, human IgG1, V domains shown)
VH: B2 VH with A110Q
VL: B2 VL with S100G
notes: also called mAb 3F9-24
B8: 3F9-18 (antibody, human IgG1, V domains shown)
VH: B2 VH with A110Q
VL: B2 VL
notes: also called mAb 3F9-18
B9: 3F9-11 (antibody, human IgG1, V domains shown)
VH: B2 VH with A110R
VL: B2 VL with S100I
notes: also called mAb 3F9-11
B10: 3F9-5 (antibody, human IgG1, V domains shown)
VH: B2 VH
VL: B2 VL with S100T
notes: also called mAb 3F9-5
B11: 3F9-21 (antibody, human IgG1, V domains shown)
VH: B2 VH with A110Q
VL: B2 VL with S100T
notes: also called mAb 3F9-21
B12: 3F9-12 (antibody, human IgG1, V domains shown)
VH: B2 VH with A110R
VL: B2 VL with S100P
notes: also called mAb 3F9-12
B13: 3F9-20 (antibody, human IgG1, V domains shown)
VH: B2 VH with A110Q
VL: B2 VL with S100P
notes: also called mAb 3F9-20
B14: 3F9-2 (antibody, human IgG1, V domains shown)
VH: B2 VH
VL: B2 VL with S100C
notes: also called mAb 3F9-2
B15: 3F9-19 (antibody, human IgG1, V domains shown)
VH: B2 VH with A110Q
VL: B2 VL with S100I
notes: also called mAb 3F9-19
B16: 3F9-13 (antibody, human IgG1, V domains shown)
VH: B2 VH with A110R
VL: B2 VL with S100T
notes: also called mAb 3F9-13
B17: 3F9-9 (antibody, human IgG1, V domains shown)
VH: B2 VH
VL: B2 VL with S100W
notes: also called mAb 3F9-9
B18: 3F9-10 (antibody, human IgG1, V domains shown)
VH: B2 VH with A110R
VL: B2 VL
notes: also called mAb 3F9-10
B19: 3F9-8 (antibody, human IgG1, V domains shown)
VH: B2 VH
VL: B2 VL with S100G
notes: also called mAb 3F9-8
B20: 3F9-23 (antibody, human IgG1, V domains shown)
VH: B2 VH with A110Q
VL: B2 VL with S100A
notes: also called mAb 3F9-23
B21: 3F9-6 (antibody, human IgG1, V domains shown)
VH: B2 VH
VL: B2 VL with S100V
notes: also called mAb 3F9-6
B22: 3F9-17 (antibody, human IgG1, V domains shown)
VH: B2 VH with A110R
VL: B2 VL with S100W
notes: also called mAb 3F9-17
B23: 3F9-7 (antibody, human IgG1, V domains shown)
VH: B2 VH
VL: B2 VL with S100A
notes: also called mAb 3F9-7
B24: 3F9-16 (antibody, human IgG1, V domains shown)
VH: B2 VH with A110R
VL: B2 VL with S100G
notes: also called mAb 3F9-16

Columns and labels:
[1] = target: T1, human SIRPA on human macrophages (primary monocyte-derived macrophages; U937 line) (human, UniProt P78324 31-504); experiment: cell-based or functional assay
T1 sequence (P78324 31-370): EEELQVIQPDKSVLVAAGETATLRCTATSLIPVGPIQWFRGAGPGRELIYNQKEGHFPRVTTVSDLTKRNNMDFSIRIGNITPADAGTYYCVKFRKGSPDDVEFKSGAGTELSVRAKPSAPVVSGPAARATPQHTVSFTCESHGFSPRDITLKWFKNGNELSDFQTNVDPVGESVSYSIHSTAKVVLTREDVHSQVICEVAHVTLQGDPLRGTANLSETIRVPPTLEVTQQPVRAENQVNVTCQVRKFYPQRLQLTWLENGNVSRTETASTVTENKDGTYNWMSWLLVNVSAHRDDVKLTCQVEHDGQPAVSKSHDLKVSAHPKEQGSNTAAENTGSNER

[2] = target: T1, human SIRPA on human macrophages …; experiment: cell-based or functional assay; remark: listed apart in the source
[3] = target: T2, histidine-tagged human SIRPA v1 (Novoprotein) (human, UniProt P78324 31-370, limits assumed); experiment: BLI (Octet), antibody on anti-human IgG Fc sensor, His-huSIRPA in solution, single-curve 1:1 fit
T2 construct: bought, soluble; also called huSIRPA; soluble huSIRPA; not shown: histidine tag
T2 sequence (P78324 31-370 limits assumed): as the sequence (P78324 31-370) above
Procedure: (§1) Initial characterization of affinity matured anti-SIRPA antibodies disclosed herein comprised acquiring antigen affinity measurements using bio-layer interferometry (BLI) on a Pall ForteBio Octet RED96 instrument. Immobilized anti-mouse IgG Fc or anti-human IgG Fc antibodies captured murine anti-SIRPA 3F79 antibody and humanized anti-SIRPA 3F79 antibody on biosensors, respectively. Single cycle kinetics were performed with 25 nM huSIRPA [which variant?] or 50 nM huSIRPB 1 flowed over captured antibody 3F79 to record traces. Data analysis was performed using ForteBio Data Analysis Software, version 9.0. Standard kinetic buffer (PBS, 0.100 BSA, 0.02% Tween-20, pH 7.2) was used for the assay and for preparing reagents. […] 50 nM of histidine-tagged human SIRPA vi or human SIRPB1 (Novoprotein, Summit, NJ, USA) were then bound to the captured anti-SIRPA antibody coated surface (200 s association time, 900 s dissociation time). […] Single-curve kinetic analysis was performed using a 1:1 interaction model to extract association and dissociation rate constants (ka and kd, respectively) for each antibody. Affinity constants (KD) were calculated from the ratio kd/ka.

[4] = target: T3, human SIRPA v1 on BWZ cells (BWZ-huSIRPA) (human, UniProt P78324 31-504); experiment: flow cytometry titration on BWZ-huSIRPA cells, 4 C
T3 construct: also called BWZ cells overexpressing human SIRPA; BWZ-huSIRPA v1 cells
T3 sequence (P78324 31-504): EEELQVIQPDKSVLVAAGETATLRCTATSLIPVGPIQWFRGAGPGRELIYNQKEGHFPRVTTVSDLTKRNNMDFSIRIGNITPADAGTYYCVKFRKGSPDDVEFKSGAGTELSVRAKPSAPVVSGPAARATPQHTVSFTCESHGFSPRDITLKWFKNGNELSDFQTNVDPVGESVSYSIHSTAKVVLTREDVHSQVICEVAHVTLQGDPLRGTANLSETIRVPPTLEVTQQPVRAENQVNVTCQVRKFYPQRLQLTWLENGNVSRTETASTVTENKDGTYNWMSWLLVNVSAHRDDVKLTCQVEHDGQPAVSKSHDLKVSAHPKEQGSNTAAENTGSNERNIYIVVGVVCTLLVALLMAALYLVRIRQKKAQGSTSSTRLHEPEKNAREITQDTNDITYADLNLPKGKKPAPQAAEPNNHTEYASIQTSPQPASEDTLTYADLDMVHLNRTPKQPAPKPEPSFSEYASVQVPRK
Procedure: After addition of fluorescently labeled secondary antibody and brief washing steps, MFI values as a function of titrated antibody concentration was recorded via FACS analysis. […] Receptor bound antibodies were detected by staining cells with anti-human IgG PE secondary antibody. Curves were fit using nonlinear regression analysis with Graphpad Prism 6 software.

[5] = target: T2, histidine-tagged human SIRPA v1 …; experiment: BLI (Octet)
Procedure: as §1

[6] = target: T1, human SIRPA on human macrophages …; experiment: cell-based or functional assay; remark: listed apart in the source
[7] = target: T1, human SIRPA on human macrophages …; experiment: cell-based or functional assay; remark: listed apart in the source

Binder	Kd [3] [nM]	koff [3] [s⁻¹]	kon [3] [M⁻¹ s⁻¹]	other results
B1	–	–	–	EC50 (nM), phagocytosis of A375 cells by primary human macrophages [1]: 0.114 nM; Max, fold increase in phagocytosis over baseline activity [1]: 2.07 fold; IC50 (nM), SIRPA downregulation on human monocyte-derived macrophages [2]: 0.047 nM; Max % DR, SIRPA, human monocyte-derived macrophages [2]: 73.8%
B2	2.09	0.000222	106000	–
B3	1.06	0.000162	153000	EC50 [4]: 0.96 nM
B4	4.43	0.000416	93900	–
B5	1.79	0.000203	113000	–
B6	6.28	0.000362	57600	–
B7	1.07	0.000155	144000	–
B8	0.419	5.74e-05	137000	EC50 [4]: 0.51 nM; fold increase in affinity relative to parental h3F9 [5]: ~10 fold; SIRPA IC50 (nM), downregulation on U937 cells [6]: 2.19 nM; SIRPA Max % DR, U937 cells [6]: 71%; Phagocytosis, fold increase over baseline activity [7]: 1.52 fold; SIRPA IC50 (nM), downregulation on human primary macrophages [7]: 0.0174 nM; SIRPA Max % DR, human primary macrophages [7]: 90%
B9	1.43	0.000192	134000	–
B10	2.95	0.000276	93600	–
B11	1.03	0.000152	148000	EC50 [4]: 0.64 nM
B12	0.429	5.96e-05	139000	fold increase in affinity relative to parental h3F9 [5]: ~10 fold
B13	0.85	0.000128	150000	EC50 [4]: 0.49 nM; fold increase in affinity relative to parental h3F9 [5]: ~10 fold; SIRPA IC50 (nM), downregulation on U937 cells [6]: 0.152 nM; SIRPA Max % DR, U937 cells [6]: 75%; Phagocytosis, fold increase over baseline activity [7]: 1.62 fold; SIRPA IC50 (nM), downregulation on human primary macrophages [7]: 0.0283 nM; SIRPA Max % DR, human primary macrophages [7]: 90%
B14	2.06	0.000222	108000	–
B15	1.29	0.000181	141000	–
B16	1.38	0.000201	146000	–
B17	3.38	0.000302	89400	–
B18	1.51	0.000201	134000	–
B19	3.6	0.000276	76600	–
B20	0.539	9.11e-05	169000	fold increase in affinity relative to parental h3F9 [5]: ~10 fold
B21	1.65	0.000192	116000	–
B22	1.7	0.000238	140000	EC50 [4]: 0.61 nM
B23	1.81	0.00018	99200	–
B24	1.27	0.000151	119000	–
